Laboratory results taken from patent US20220170923A1 (NATIONAL CHENG KUNG UNIVERSITY, published 2022).

Molecular target: T1, human angiotensin-converting enzyme 2 (ACE2) (human, UniProt Q9BYF1 18-740)
T1 construct: also called ACE2 receptor; human angiotensin-converting enzyme 2 on a cell surface
Assay: protein microarray, ACE2 in solution, Cy3 labeled anti-human IgG detection

T1 sequence (Q9BYF1 18-740 limits assumed): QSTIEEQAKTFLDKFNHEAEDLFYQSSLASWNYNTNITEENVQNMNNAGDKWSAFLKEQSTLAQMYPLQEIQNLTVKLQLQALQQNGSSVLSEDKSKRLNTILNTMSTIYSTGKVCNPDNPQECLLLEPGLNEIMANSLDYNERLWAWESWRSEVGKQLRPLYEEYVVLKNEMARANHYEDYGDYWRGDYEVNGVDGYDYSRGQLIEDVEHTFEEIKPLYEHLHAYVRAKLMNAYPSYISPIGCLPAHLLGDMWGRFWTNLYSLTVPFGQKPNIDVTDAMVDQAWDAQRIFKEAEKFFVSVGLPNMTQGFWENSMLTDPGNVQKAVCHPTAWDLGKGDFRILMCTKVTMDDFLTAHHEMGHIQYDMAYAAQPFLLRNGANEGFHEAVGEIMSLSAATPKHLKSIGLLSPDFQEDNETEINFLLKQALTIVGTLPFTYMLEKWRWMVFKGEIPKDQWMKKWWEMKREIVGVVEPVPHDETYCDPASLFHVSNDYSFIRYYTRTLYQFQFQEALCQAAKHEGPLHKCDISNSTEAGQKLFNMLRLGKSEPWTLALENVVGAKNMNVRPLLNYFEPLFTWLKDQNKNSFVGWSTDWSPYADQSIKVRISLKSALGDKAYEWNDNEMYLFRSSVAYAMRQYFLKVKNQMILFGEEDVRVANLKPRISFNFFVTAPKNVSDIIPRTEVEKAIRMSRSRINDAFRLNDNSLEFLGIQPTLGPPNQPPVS

B1: spike protein (S protein) of MERS-CoV with His-tag (other)
chain: YVDVGPDSVKSACIEVDIQQTFFDKTWPRPIDVSKADGIIYPQGRTYSNITITYQGLFPYQGDHGDMYVYSAGHATGTTPQKLFVANYSQDVKQFANGFVVRIGAAANSTGTVIISPSTSATIRKIYPAFMLGSSVGNFSDGKMGRFFNHTLVLLPDGCGTLLRAFYCILEPRSGNHCPAGNSYTSFATYHTPATDCSDGNYNRNASLNSFKEYFNLRNCTFMYTYNITEDEILEWFGITQTAQGVHLFSSRYVDLYGGNMFQFATLPVYDTIKYYSIIPHSIRSIQSDRKAWAAFYVYKLQPLTFLLDFSVDGYIRRAIDCGFNDLSQLHCSYESFDVESGVYSVSSFEAKPSGSVVEQAEGVECDFSPLLSGTPPQVYNFKRLVFTNCNYNLTKLLSLFSVNDFTCSQISPAAIASNCYSSLILDYFSYPLSMKSDLSVSSAGPISQFNYKQSFSNPTCLILATVPHNLTTITKPLKYSYINKCSRFLSDDRTEVPQLVNANQYSPCVSIVPSTVWEDGDYYRKQLSPLEGGGWLVASGSTVAMTEQLQMGFGITVQYGTDTNSVCPKLEFANDTKIASQLGNCVEYSLYGVSGRGVFQNCTAVGVRQQRFVYDAYQNLVGYYSDDGNYYCLRACVSVPVSVIYDKETKTHATLFGSVACEHISSTMSQYSRSTRSMLKRRDSTYGPLQTPVGCVLGLVNSSLFVEDCKLPLGQSLCALPDTPSTLTPRSVRSVPGEMRLASIAFNHPIQVDQLNSSYFKLSIPTNFSFGVTQEYIQTTIQKVTVDCKQYVCNGFQKCEQLLREYGQFCSKINQALHGANLRQDDSVRNLFASVKSSQSSPIIPGFGGDFNLTLLEPVSISTGSRSARSAIEDLLFDKVTIADPGYMQGYDDCMQQGPASARDLICAQYVAGYKVLPPLMDVNMEAAYTSSLLGSIAGVGWTAGLSSFAAIPFAQSIFYRLNGVGITQQVLSENQKLIANKFNQALGAMQTGFTTTNEAFHKVQDAVNNNAQALSKLASELSNTFGAISASIGDIIQRLDVLEQDAQIDRLINGRLTTLNAFVAQQLVRSESAALSAQLAKDKVNECVKAQSKRSGFCGQGTHIVSFVVNAPNGLYFMHVGYYPSNHIEVVSAYGLCDAANPTNCIAPVNGYFIKTNNTRIVDEWSYTGSSFYAPEPITSLNTKYVAPQVTYQNISTNLPPPLLGNSTGIDFQDELDEFFKNVSTSIPNFGSLTQINTTLLDLTYEMLSLQQVVKALNESYIDLKELGNYTYYNKWPW
B1: no binding (tested: 25 ng, 50 ng, 75 ng, 100 ng, and 125 ng).
